The values that follow come from paper PMC4990751 (Molecules and Cells, 2016).

This data set deals with the molecule itself. Put plainly: SEC. On the technique in general: Size exclusion chromatography separates by hydrodynamic size, large species first.

B1: T105C-PaAhpC (enzyme, Pseudomonas aeruginosa PAO1, UniProt Q9I6Z3 1-187, looked up)
chain: MSLINTQVQPFKVNAFHNGKFIEVTEESLKGKWSVLIFMPAAFTFNCPTEIEDAANNYGEFQKAGAEVYIVTTDTHFSHKVWHETSPAVGKAQFPLIGDPTHQLCNAFGVHIPEEGLALRGTFVINPEGVIKTVEIHSNEIARDVGETVRKLKAAQYTAAHPGEVCPAKWKEGEKTLAPSLDLVGKI
The term stoichiometry N denotes the number of molecules, sites or subunits per partner or assembly. In the case of B1, the “stoichiometry N” value came out at 10.
